Molecular target: Bacillus anthracis protective antigen (PA) (Bacillus anthracis, UniProt P13423 30-764)
Sequence (P13423 30-764 limits assumed): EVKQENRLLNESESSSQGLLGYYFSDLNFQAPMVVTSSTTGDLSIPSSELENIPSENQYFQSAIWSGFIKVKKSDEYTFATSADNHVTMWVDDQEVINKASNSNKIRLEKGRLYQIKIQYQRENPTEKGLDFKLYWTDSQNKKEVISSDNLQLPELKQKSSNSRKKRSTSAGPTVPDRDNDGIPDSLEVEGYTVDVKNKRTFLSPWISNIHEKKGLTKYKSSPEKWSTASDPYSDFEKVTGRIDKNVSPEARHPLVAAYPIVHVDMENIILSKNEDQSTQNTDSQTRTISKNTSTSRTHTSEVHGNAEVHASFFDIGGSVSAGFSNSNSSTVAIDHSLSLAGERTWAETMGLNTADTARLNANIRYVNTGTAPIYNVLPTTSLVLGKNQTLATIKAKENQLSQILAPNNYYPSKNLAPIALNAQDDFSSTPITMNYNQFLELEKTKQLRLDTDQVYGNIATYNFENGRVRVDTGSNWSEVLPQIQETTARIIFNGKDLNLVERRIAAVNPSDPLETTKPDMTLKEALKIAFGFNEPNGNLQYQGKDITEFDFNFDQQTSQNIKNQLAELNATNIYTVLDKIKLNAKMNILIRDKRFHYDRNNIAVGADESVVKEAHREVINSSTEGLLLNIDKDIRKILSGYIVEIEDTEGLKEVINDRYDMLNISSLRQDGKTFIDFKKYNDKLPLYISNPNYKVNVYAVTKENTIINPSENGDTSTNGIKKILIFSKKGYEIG

B1: M18 with the Q55L substitution, scAb (scFv)
chain: DIQMTQTTSSLSASLGDRVTVSCRASQDIRNYLNWYQQKPDGTVKFLIYYTSRLLPGVPSRFSGSGSGTDYSLTINNLEQEDIGTYFCQQGNTPPWTFGGGTKLEIKRGGGGSDGGGSGGGGSGGGGSEVQLQQSGPELVKPGASVKISCKDSGYAFNSSWMNWVKQRPGQGLEWIGRIYPGDGDSNYNGKFEGKAILTADKSSSTAYMQLSSLTSVDSAVYFCARSGLLRYAMDYWGQGTSVTVSS
Kd: 21 pM | koff: 2.4e-05 s⁻¹ | kon: 1.1e+06 M⁻¹ s⁻¹
